Assay results published in PMC9231621 (Proceedings of the National Academy of Sciences of the …, 2022).

Assays:
[1] = molecular target: hMPV A1 F monomer (trypsinized monomeric prefusion hMPV F) (human metapneumovirus subgroup A1; …, UniProt H6X1Z1, strain)
[2] = molecular target: hMPV A1 F trimer (heated), postfusion hMPV F (human metapneumovirus subgroup A1; …, UniProt H6X1Z1, strain)

Binder | binding result [1] | binding result [2]
MPV485 (antibody, V domains shown) V domain 1: QVQLQEPGPGLVKPSETLSLTCTVSGGSISSTNSFWGWVRQPPGKGLEWIGSIYYSGTTYYNSSLKSRVTISVDTSKNQFSLRLSSVTAADTAVYYCARQGLTSSWYDGSGLDVWG V domain 2: SYELTQPPSVSVSPGQTASITCSGDKLGNKYACWYQQRPGQSPVLVIYQDTKRPSGIPERFSGSNSGNTATLTISGTQAMDEADYYCQAWDSNTVVFGGGTKLTVL | binds | binds
MPV491 (antibody, V domains shown) VH: QVQLQESGPGLVKSSQTLSLTCTVSGGSISSVTSHWTWIRQHPGKGLEWIGYIFSSGTTYYSPSLRSRLTMSVDTSKNQFSLQLSSVTAADTAMYYCARGIYCGDSCYKGTDYWGRGTLVTVSS VL: IRLMTQTPVTLPVTPGEPASISCRSSQSLLHSNGYNYLDWYLQKPGQSPQLLIYRGSTRASGVPDRFSGSGSGTEFTLKISRVEAEDVGVYYCMQGLQTPYTFGQGTKLESR | binds | binds
MPV454 (antibody, V domains shown) VH: QVQLVESGGGLVKPGGSLRLSCSTSGFVFSSYAMHWVRQAPGKGLEHVSAISSTGDNTHYADSVKGRFTISRDNSRGRLYLQMTSVRPEDAALYYCVKDLYSGRFYYFLDDWGQGTRIIVSS VL: DIQVTQSPSSLSASVGDRVTISCRASQNISNYLNWFQQRPGKAPKLLIYVASTLQSGAPSRFSGSGSGTDFTLTITDLQPEDFATYYCQQSYNTPPITFGQGTRLEIK | binds | binds
MPV481 (antibody, V domains shown) VH: QVQLVQSGGGLVKPGGSLRLSCAASGLPFNNAWMNWVRQAPGKGLEWVGRIKSKIDGGTTEYAAPVKGRFTISRDDSENTLYLQMNSLRTEDTAVYYCTTEYYALLSGNYSDCWGQGTLVTVSS VL: IRLMTQSPFSLSLSPGERATLSCRASQSIKRAYLGWYQQKPGQAPRLLIYGASNRATGIPDRFSGSGSGTDFTLTISRLEPEDFAVYYCQQYGDSPGGSFGQGTKLEIR | binds | binds
MPV482 (antibody, V domains shown) VH: QVQLVQSGGGVVQPGRSLRLSCAASGFTFSSFAMHWVRQAPGKGLEWVALISDDGNNKYHADSVKGRFTISRDSSKNTLYLQMNSLRGEDTAVYYCARDGSVVGAAAHCDHWGQGTLVTVSS VL: SYELTQPPSVSVSPGQTARITCSGDALPNQCAYWYQQKPGLAPVLLIYKDKERPSGIPERFSGSISGTTVTLTISGVQAEDEADYYCQSSDSSSTVVFGGGTKLTVL | binds | binds
MPV486 (antibody, V domains shown) VH: QVQLVESGGHLVQSGGSLRLSCAASGFTFSNYILNWVRQAPGKGLEWISYITGGSSAIYYADSVKGRFTISRDDAKNSLYLQMNNLRAEDTAVYYCARSHGYDSSGYYYYFAMDVWGQGTTVTVSS VL: QSVLTQPPSASGTPGQRVTISCSGSNSNIESNTVNWYQQIPGTAPKLLIYSDNRRPSGVPDRFSGSKSGTSASLAISGLQSEDEADYYCAAWDDSLIGYVFGTGTKVTV | binds | binds
MPV464 (antibody, V domains shown) VH: QVQLQESGPGLVKPSQTLSLTCTVSGGSVRGGGDYWSWIRRPPGKGLEWIGHIYNSGTTFYNPSLKSRVTISIDTSKNQFSLKLRSVTAADTAVYYCGRVGSRATGLPDWIDPWGQGTLVTVSS VL: SYELTQPPSVSVSPGQTATITCSGTNLGAKYSCWYQQKPGQSPVLVIFQDNKRASGIPARFSASTSGDTATLTISGTQVMDEADYFCQAWDSRTAVFGGGTTLTV | binds | binds
